Measurements taken from patent US20140087995A1 (published 2014).
Like-named read-outs stand apart in the source and are kept apart here. Numbered stars: 1 amine (or outer) side, 2 acyl side, 3 side chain; on linkers, the order of the positions; unused ones are H or OH. Bridge positions count the residues as written; N and C are the ends. Side chains are listed from the residue outwards. Ends that are not written are not given here. * marks the point of attachment. C20 diacid = O=C(O)CCCCCCCCCCCCCCCCCCC(=O)*; γGlu = O=C(O)[C@H](CCC(=O)[*:2])N[*:1]; AEEA = NCCOCCOCC(=O)O

T1: human amylin 3(a) receptor (human calcitonin receptor co-expressed with RAMP-3) (human, UniProt P30988 25-474; O60896 24-148, limits assumed)
T1 sequence (looked up) 1: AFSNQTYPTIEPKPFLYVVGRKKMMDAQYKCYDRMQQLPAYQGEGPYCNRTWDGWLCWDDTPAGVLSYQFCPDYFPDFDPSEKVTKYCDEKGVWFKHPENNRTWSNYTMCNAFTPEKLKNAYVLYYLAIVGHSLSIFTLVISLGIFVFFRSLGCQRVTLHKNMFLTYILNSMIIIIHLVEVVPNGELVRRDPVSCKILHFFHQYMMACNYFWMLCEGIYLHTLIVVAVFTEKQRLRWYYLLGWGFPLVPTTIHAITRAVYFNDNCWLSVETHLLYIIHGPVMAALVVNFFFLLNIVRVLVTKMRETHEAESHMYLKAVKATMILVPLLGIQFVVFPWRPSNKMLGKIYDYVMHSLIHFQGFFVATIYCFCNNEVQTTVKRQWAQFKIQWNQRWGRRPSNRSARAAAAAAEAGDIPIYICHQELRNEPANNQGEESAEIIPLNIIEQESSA
T1 sequence (looked up) 2: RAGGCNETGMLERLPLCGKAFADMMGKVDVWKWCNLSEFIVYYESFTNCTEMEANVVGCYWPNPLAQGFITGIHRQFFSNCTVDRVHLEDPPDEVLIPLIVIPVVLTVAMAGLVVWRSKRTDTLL

T2: human calcitonin receptor (human, UniProt P30988 25-474)
T2 sequence (looked up): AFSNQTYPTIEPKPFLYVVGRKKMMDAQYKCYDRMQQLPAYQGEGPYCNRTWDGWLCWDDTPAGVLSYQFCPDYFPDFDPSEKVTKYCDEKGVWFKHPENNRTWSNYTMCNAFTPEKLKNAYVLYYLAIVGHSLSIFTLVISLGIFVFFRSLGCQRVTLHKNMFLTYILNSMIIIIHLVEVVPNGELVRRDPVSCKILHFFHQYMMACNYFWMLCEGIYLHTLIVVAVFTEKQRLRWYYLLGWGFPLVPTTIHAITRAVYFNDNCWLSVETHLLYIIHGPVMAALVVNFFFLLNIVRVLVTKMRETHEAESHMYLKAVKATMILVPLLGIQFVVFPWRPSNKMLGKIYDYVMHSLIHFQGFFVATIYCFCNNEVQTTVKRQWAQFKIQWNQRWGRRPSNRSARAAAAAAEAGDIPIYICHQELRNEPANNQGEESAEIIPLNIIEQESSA

T3: human calcitonin receptor (human, UniProt P30988 25-474)
T3 sequence (looked up): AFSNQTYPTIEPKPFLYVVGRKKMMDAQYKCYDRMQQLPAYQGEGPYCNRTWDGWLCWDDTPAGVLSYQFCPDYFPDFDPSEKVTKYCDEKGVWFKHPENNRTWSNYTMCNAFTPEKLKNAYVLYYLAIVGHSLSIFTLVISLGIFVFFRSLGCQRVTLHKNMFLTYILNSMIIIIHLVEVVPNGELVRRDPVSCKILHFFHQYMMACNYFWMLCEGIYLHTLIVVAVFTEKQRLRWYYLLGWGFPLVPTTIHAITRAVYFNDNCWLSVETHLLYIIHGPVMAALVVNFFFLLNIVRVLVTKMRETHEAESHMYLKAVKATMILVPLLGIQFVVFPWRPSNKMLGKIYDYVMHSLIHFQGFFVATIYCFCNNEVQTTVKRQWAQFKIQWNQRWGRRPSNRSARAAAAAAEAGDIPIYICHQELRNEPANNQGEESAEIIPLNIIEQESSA


Columns and labels:
Experiment in all cases: cell-based or functional assay
[1] = biological target: T1, human amylin 3(a) receptor (human …)
[2] = biological target: T2, human calcitonin receptor
[3] = biological target: T3, human calcitonin receptor; remark: listed apart in the source

| hAmylin-R funct. EC50 [1] [nM] | Ratio hCT/hAmylin funct. [2] | hCTR funct. EC50 [2] [nM] | hCTR funct. EC50 [3] [nM] | Binder |
| --- | --- | --- | --- | --- |
| 0.285 | 3.8 | 1.09 |  | K([γGlu-γGlu-C20 diacid])CNTATCATQRLAEFLRHSSPNFGAIPSSTNVGHNTY-NH2 (disulfide 2-7; N-terminus assumed; SMILES CC[C@H](C)[C@H](NC(=O)[C@H](C)NC(=O)CNC(=O)[C@H](Cc1ccccc1)NC(=O)[C@H](CC(N)=O)NC(=O)[C@@H]1CCCN1C(=O)[C@H](CO)NC(=O)[C@H](CO)NC(=O)[C@H](Cc1c[nH]cn1)NC(=O)[C@H](CCCNC(=N)N)NC(=O)[C@H](CC(C)C)NC(=O)[C@H](Cc1ccccc1)NC(=O)[C@H](CCC(=O)O)NC(=O)[C@H](C)NC(=O)[C@H](CC(C)C)NC(=O)[C@H](CCCNC(=N)N)NC(=O)[C@H](CCC(N)=O)NC(=O)[C@@H](NC(=O)[C@H](C)NC(=O)[C@@H]1CSSC[C@H](NC(=O)[C@@H](N)CCCCNC(=O)CC[C@H](NC(=O)CC[C@H](NC(=O)CCCCCCCCCCCCCCCCCCC(=O)O)C(=O)O)C(=O)O)C(=O)N[C@@H](CC(N)=O)C(=O)N[C@@H]([C@@H](C)O)C(=O)N[C@@H](C)C(=O)N[C@@H]([C@@H](C)O)C(=O)N1)[C@@H](C)O)C(=O)N1CCC[C@H]1C(=O)N[C@@H](CO)C(=O)N[C@@H](CO)C(=O)N[C@H](C(=O)N[C@@H](CC(N)=O)C(=O)N[C@H](C(=O)NCC(=O)N[C@@H](Cc1c[nH]cn1)C(=O)N[C@@H](CC(N)=O)C(=O)N[C@H](C(=O)N[C@@H](Cc1ccc(O)cc1)C(N)=O)[C@@H](C)O)C(C)C)[C@@H](C)O, also called compound 87) |
| 0.04 | 36.9 | 1.48 |  | K([AEEA-C20 diacid])CNTATCATQRLANFLRHSSPNFGAIPSSTNVGHNTY-NH2 (disulfide 2-7; N-terminus assumed; SMILES CC[C@H](C)[C@H](NC(=O)[C@H](C)NC(=O)CNC(=O)[C@H](Cc1ccccc1)NC(=O)[C@H](CC(N)=O)NC(=O)[C@@H]1CCCN1C(=O)[C@H](CO)NC(=O)[C@H](CO)NC(=O)[C@H](Cc1c[nH]cn1)NC(=O)[C@H](CCCNC(=N)N)NC(=O)[C@H](CC(C)C)NC(=O)[C@H](Cc1ccccc1)NC(=O)[C@H](CC(N)=O)NC(=O)[C@H](C)NC(=O)[C@H](CC(C)C)NC(=O)[C@H](CCCNC(=N)N)NC(=O)[C@H](CCC(N)=O)NC(=O)[C@@H](NC(=O)[C@H](C)NC(=O)[C@@H]1CSSC[C@H](NC(=O)[C@@H](N)CCCCNC(=O)COCCOCCNC(=O)CCCCCCCCCCCCCCCCCCC(=O)O)C(=O)N[C@@H](CC(N)=O)C(=O)N[C@@H]([C@@H](C)O)C(=O)N[C@@H](C)C(=O)N[C@@H]([C@@H](C)O)C(=O)N1)[C@@H](C)O)C(=O)N1CCC[C@H]1C(=O)N[C@@H](CO)C(=O)N[C@@H](CO)C(=O)N[C@H](C(=O)N[C@@H](CC(N)=O)C(=O)N[C@H](C(=O)NCC(=O)N[C@@H](Cc1c[nH]cn1)C(=O)N[C@@H](CC(N)=O)C(=O)N[C@H](C(=O)N[C@@H](Cc1ccc(O)cc1)C(N)=O)[C@@H](C)O)C(C)C)[C@@H](C)O, also called compound 91) [N^ε1-[2-[2-[2-(19-carboxynonadecanoylamino)ethoxy]ethoxy]acetyl]-[Arg17,Pro21,Pro27,His34]-h-amylin] |
| 0.033 | 7.2 | 0.236 |  | K([AEEA-C20 diacid])CNTATCATQRLAHFLRHSSPNFGAIPSSTNVGSNTY-NH2 (disulfide 2-7; N-terminus assumed; SMILES CC[C@H](C)[C@H](NC(=O)[C@H](C)NC(=O)CNC(=O)[C@H](Cc1ccccc1)NC(=O)[C@H](CC(N)=O)NC(=O)[C@@H]1CCCN1C(=O)[C@H](CO)NC(=O)[C@H](CO)NC(=O)[C@H](Cc1c[nH]cn1)NC(=O)[C@H](CCCNC(=N)N)NC(=O)[C@H](CC(C)C)NC(=O)[C@H](Cc1ccccc1)NC(=O)[C@H](Cc1c[nH]cn1)NC(=O)[C@H](C)NC(=O)[C@H](CC(C)C)NC(=O)[C@H](CCCNC(=N)N)NC(=O)[C@H](CCC(N)=O)NC(=O)[C@@H](NC(=O)[C@H](C)NC(=O)[C@@H]1CSSC[C@H](NC(=O)[C@@H](N)CCCCNC(=O)COCCOCCNC(=O)CCCCCCCCCCCCCCCCCCC(=O)O)C(=O)N[C@@H](CC(N)=O)C(=O)N[C@@H]([C@@H](C)O)C(=O)N[C@@H](C)C(=O)N[C@@H]([C@@H](C)O)C(=O)N1)[C@@H](C)O)C(=O)N1CCC[C@H]1C(=O)N[C@@H](CO)C(=O)N[C@@H](CO)C(=O)N[C@H](C(=O)N[C@@H](CC(N)=O)C(=O)N[C@H](C(=O)NCC(=O)N[C@@H](CO)C(=O)N[C@@H](CC(N)=O)C(=O)N[C@H](C(=O)N[C@@H](Cc1ccc(O)cc1)C(N)=O)[C@@H](C)O)C(C)C)[C@@H](C)O, also called compound 90) [N^ε1-[2-[2-[2-(19-carboxynonadecanoylamino)ethoxy]ethoxy]acetyl]-[His14,Arg17,Pro21,Pro27]-h-amylin] |
|  |  |  | 0.818 | {C20 diacid-γGlu}-GRCNTATCATQRLAHFLRHSSPNFGAIPSSTNVGSNTY-NH2 (disulfide 3-8; SMILES CC[C@H](C)[C@H](NC(=O)[C@H](C)NC(=O)CNC(=O)[C@H](Cc1ccccc1)NC(=O)[C@H](CC(N)=O)NC(=O)[C@@H]1CCCN1C(=O)[C@H](CO)NC(=O)[C@H](CO)NC(=O)[C@H](Cc1c[nH]cn1)NC(=O)[C@H](CCCNC(=N)N)NC(=O)[C@H](CC(C)C)NC(=O)[C@H](Cc1ccccc1)NC(=O)[C@H](Cc1c[nH]cn1)NC(=O)[C@H](C)NC(=O)[C@H](CC(C)C)NC(=O)[C@H](CCCNC(=N)N)NC(=O)[C@H](CCC(N)=O)NC(=O)[C@@H](NC(=O)[C@H](C)NC(=O)[C@@H]1CSSC[C@H](NC(=O)[C@H](CCCNC(=N)N)NC(=O)CNC(=O)CC[C@H](NC(=O)CCCCCCCCCCCCCCCCCCC(=O)O)C(=O)O)C(=O)N[C@@H](CC(N)=O)C(=O)N[C@@H]([C@@H](C)O)C(=O)N[C@@H](C)C(=O)N[C@@H]([C@@H](C)O)C(=O)N1)[C@@H](C)O)C(=O)N1CCC[C@H]1C(=O)N[C@@H](CO)C(=O)N[C@@H](CO)C(=O)N[C@H](C(=O)N[C@@H](CC(N)=O)C(=O)N[C@H](C(=O)NCC(=O)N[C@@H](CO)C(=O)N[C@@H](CC(N)=O)C(=O)N[C@H](C(=O)N[C@@H](Cc1ccc(O)cc1)C(N)=O)[C@@H](C)O)C(C)C)[C@@H](C)O, also called compound 99) |
|  |  |  | 1.73 | {C20 diacid-γGlu}-GRCNTATCATQRLAHFLRHSSPNFGAIPSSTNVGHNTY-NH2 (disulfide 3-8; SMILES CC[C@H](C)[C@H](NC(=O)[C@H](C)NC(=O)CNC(=O)[C@H](Cc1ccccc1)NC(=O)[C@H](CC(N)=O)NC(=O)[C@@H]1CCCN1C(=O)[C@H](CO)NC(=O)[C@H](CO)NC(=O)[C@H](Cc1c[nH]cn1)NC(=O)[C@H](CCCNC(=N)N)NC(=O)[C@H](CC(C)C)NC(=O)[C@H](Cc1ccccc1)NC(=O)[C@H](Cc1c[nH]cn1)NC(=O)[C@H](C)NC(=O)[C@H](CC(C)C)NC(=O)[C@H](CCCNC(=N)N)NC(=O)[C@H](CCC(N)=O)NC(=O)[C@@H](NC(=O)[C@H](C)NC(=O)[C@@H]1CSSC[C@H](NC(=O)[C@H](CCCNC(=N)N)NC(=O)CNC(=O)CC[C@H](NC(=O)CCCCCCCCCCCCCCCCCCC(=O)O)C(=O)O)C(=O)N[C@@H](CC(N)=O)C(=O)N[C@@H]([C@@H](C)O)C(=O)N[C@@H](C)C(=O)N[C@@H]([C@@H](C)O)C(=O)N1)[C@@H](C)O)C(=O)N1CCC[C@H]1C(=O)N[C@@H](CO)C(=O)N[C@@H](CO)C(=O)N[C@H](C(=O)N[C@@H](CC(N)=O)C(=O)N[C@H](C(=O)NCC(=O)N[C@@H](Cc1c[nH]cn1)C(=O)N[C@@H](CC(N)=O)C(=O)N[C@H](C(=O)N[C@@H](Cc1ccc(O)cc1)C(N)=O)[C@@H](C)O)C(C)C)[C@@H](C)O, also called compound 100) |
